Ratio between the input and the pulled-down amounts data for one substance are collected here from paper PMC2164975.

This experiment addresses GST-QM fusion protein, full-length QM (human) (UniProt P27635). Description: pull-down.

Regarding “normal full-length PS1, in vitro translated and radiolabeled with [35S]methionine (from UniProt P49768 1-467) (natural protein)”, the ratio between the input and the pulled-down amounts turned out to be 95%.
